Numbering of substitutions follows the chain as printed. Names and notes keep the numbering of the source.

B1: auto-MARylated PARP10 catalytic domain (domain or fragment, UniProt Q53GL7 819-1007, looked up)
chain: NLERLAENTGEFQEVVRAFYDTLDAARSSIRVVRVERVSHPLLQQQYELYRERLLQRCERRPVEQVLYHGTTAPAVPDICAHGFNRSFCGRNATVYGKGVYFARRASLSVQDRYSPPNADGHKAVFVARVLTGDYGQGRRGLRAPPLRGPGHVLLRYDSAVDCICQPSIFVIFHDTQALPTHLITCEHV
modifications: auto-mono-ADP-ribosylated (MARylated) on glutamic and aspartic acid, serine, lysine and arginine side chains; sites not given
notes: PARP10 catalytic domain, construct PARP10 819-1007; also called PARP10 819-1007; source: auto-modified with NAD+
B2: Af1521-c001, wild type Af1521 fused to GFP (other, Archaeoglobus fulgidus, UniProt O28751 1-192, looked up)
chain: MEVLFEAKVGDITLKLAQGDITQYPAKAIVNAANKRLEHGGGVAYAIAKACAGDAGLYTEISKKAMREQFGRDYIDHGEVVVTPAMNLEERGIKYVFHTVGPICSGMWSEELKEKLYKAFLGPLEKAEEMGVESIAFPAVSAGIYGCDLEKVVETFLEAVKNFKGSAVKEVALVIYDRKSAEVALKVFERSL
notes: Archaeoglobus fulgidus macrodomain protein Af1521, full length, wild type; pNIC28 derived vector; also called Af1521-GFP; wild type Af1521-GFP fusion; source: E. coli BL21(DE3)T1R pRARE2, purified (IMAC, SEC); not shown: eGFP, C-terminal, kept
B3: MacroGreen (Af1521-c007), Af1521 K35E,G42E,I144R,Y145R fused to GFP (other, Archaeoglobus fulgidus, UniProt O28751 1-192, looked up)
chain: B2 chain with K35E, G42E, I144R, Y145R
notes: Archaeoglobus fulgidus macrodomain protein Af1521, full length, with K35E, G42E, I144R, Y145R; Synthetic codon-optimised cDNA in a pNIC28 derived vector; also called GFP-fusion quadruple mutant; source: E. coli BL21(DE3)T1R pRARE2, purified (IMAC, SEC); not shown: eGFP, C-terminal, kept

For experiment [1], the target named is B3. The experiment can be described thus: SPR; MacroGreen covalently immobilised, auto-MARylated PARP10 catalytic domain flowed over; apparent KD from the kinetics of binding and unbinding. The note with it: both partners purified. On the technique in general: SPR reads the build-up and loss of mass on a sensor chip optically.
Experiment [2] addresses T1, PARylated PARP1 (auto-modified catalytic domain construct) (UniProt P09874 662-1011, auto-poly-ADP-ribosylated (PARylated) predominantly on carboxylic acid side chains; sites not given).
T1 construct: PARP1 catalytic domain construct, PARP1 662-1011; also called PARP1 662-1011; source: auto-modified with 1 mM NAD+
Kind of experiment: far-Western, overlay or dot blot; overlay in multiwell plates: MAR- or PARylated protein adsorbed to protein binding 96-well plates (MaxiSorp), blocked with 1% BSA, overlaid with the macrodomain-GFP fusion (1 µM in Fig. 2) in TBST pH 7.5 for 5 min at room temperature, washed, GFP fluorescence read. The settings on record: both partners purified.

T1 sequence (P09874 662-1011): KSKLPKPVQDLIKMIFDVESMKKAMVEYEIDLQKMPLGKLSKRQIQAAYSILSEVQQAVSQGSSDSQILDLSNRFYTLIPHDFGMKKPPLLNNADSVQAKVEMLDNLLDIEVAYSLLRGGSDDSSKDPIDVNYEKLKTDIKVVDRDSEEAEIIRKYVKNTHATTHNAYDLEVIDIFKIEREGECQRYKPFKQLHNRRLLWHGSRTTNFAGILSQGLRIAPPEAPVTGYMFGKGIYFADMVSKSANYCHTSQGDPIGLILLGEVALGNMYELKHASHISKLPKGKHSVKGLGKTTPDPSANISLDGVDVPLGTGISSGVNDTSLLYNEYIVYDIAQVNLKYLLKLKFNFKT

Usually stoichiometry N stands for the number of molecules, sites or subunits per partner or assembly. Turning to B1, in experiment [1], the Kd is 30 nM and the “stoichiometry N” value was determined as 1. Regarding B2, the binding result in experiment [2] is “binds”. With B3, the binding result in experiment [2] is given as “binds”.

These data come from publication PMC8319303, “MacroGreen, a simple tool for detection of ADP-ribosylated proteins” (Communications Biology, 2021).
